The values below come from patent US20050202025A1.

The target of this experiment is FbsA on cells of S. agalactiae O90R (Streptococcus agalactiae). Nature of the experiment: increasing fibrinogen on S. agalactiae O90R cells immobilised on microtiter wells; apparent KD from the concentration for half maximal binding.

Take “human fibrinogen (from UniProt P02671 20-629; P02675 31-491; P02679 27-437) (ligand)”: the Kd amounted to 0.025 µM.
